Results taken from patent publication US20190248900A1 (Y BIOLOGICS, published 2019).
Where a chain is given by its changes, count along the chain named.

T1: DMP1 (Homo sapiens (Human), UniProt Q13316 17-513)
T1 sequence: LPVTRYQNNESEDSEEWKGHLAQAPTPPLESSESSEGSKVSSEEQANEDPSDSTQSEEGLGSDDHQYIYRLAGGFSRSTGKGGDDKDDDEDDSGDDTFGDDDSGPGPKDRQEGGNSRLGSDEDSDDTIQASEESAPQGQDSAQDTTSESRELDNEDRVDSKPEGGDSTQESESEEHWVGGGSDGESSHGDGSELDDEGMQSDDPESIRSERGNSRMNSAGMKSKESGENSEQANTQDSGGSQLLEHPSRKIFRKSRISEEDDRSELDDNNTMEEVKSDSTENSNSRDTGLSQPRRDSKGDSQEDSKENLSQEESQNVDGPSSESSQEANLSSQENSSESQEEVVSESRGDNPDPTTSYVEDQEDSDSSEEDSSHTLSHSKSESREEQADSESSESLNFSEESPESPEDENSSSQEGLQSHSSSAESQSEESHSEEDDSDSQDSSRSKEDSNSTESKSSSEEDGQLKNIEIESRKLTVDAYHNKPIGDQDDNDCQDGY

T2: DKK1 (Homo sapiens (Human), UniProt O94907 32-266)
T2 sequence: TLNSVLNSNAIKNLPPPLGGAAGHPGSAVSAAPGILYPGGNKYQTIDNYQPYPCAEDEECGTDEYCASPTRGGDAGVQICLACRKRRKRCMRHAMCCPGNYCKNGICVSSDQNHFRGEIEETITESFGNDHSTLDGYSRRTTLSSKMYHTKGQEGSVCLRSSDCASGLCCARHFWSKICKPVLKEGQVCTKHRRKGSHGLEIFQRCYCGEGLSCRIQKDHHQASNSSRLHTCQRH

T3: AGR3 (Homo sapiens (Human), UniProt Q8TD06 22-166)
T3 sequence: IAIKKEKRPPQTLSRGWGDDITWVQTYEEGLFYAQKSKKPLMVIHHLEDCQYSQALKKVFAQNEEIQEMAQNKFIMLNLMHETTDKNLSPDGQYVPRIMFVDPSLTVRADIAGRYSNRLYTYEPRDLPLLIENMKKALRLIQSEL

T4: SEMA5A (Homo sapiens (Human), UniProt Q13591 23-968)
T4 sequence: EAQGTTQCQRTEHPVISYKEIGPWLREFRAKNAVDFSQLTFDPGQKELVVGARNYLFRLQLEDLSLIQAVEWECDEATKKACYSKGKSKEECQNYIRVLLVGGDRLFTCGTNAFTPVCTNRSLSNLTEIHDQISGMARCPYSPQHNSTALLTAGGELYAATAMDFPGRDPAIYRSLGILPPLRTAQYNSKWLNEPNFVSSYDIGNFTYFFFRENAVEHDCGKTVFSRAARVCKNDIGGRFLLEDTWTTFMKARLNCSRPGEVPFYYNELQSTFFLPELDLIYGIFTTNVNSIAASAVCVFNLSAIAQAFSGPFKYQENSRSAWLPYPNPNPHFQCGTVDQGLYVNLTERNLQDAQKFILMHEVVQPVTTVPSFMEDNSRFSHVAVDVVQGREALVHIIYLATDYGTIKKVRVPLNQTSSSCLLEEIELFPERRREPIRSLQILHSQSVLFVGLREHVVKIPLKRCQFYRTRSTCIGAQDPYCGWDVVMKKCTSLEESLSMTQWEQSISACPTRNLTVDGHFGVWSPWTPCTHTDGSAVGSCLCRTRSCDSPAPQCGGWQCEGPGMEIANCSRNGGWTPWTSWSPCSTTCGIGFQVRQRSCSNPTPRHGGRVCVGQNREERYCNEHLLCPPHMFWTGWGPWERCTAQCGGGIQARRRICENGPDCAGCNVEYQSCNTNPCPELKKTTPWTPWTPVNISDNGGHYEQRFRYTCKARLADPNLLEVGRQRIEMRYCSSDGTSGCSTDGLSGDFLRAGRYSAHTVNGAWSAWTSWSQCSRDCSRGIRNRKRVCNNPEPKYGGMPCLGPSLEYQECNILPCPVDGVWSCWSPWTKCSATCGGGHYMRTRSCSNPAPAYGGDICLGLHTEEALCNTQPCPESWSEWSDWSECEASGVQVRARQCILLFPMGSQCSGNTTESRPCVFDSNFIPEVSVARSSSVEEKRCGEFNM

T5: CD209 (Homo sapiens (Human), UniProt Q9NNX6 59-404)
T5 sequence: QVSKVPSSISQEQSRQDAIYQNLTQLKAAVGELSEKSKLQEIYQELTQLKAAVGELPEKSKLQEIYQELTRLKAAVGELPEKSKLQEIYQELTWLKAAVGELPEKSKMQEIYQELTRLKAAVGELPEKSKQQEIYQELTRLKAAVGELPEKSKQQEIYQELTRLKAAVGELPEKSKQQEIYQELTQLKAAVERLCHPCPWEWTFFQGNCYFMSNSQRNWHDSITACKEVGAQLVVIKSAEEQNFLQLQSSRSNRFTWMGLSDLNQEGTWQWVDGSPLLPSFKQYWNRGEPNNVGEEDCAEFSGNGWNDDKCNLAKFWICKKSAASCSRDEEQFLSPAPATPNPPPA

T6: SPOCK2 (Homo sapiens (Human), UniProt Q92563 23-424)
T6 sequence: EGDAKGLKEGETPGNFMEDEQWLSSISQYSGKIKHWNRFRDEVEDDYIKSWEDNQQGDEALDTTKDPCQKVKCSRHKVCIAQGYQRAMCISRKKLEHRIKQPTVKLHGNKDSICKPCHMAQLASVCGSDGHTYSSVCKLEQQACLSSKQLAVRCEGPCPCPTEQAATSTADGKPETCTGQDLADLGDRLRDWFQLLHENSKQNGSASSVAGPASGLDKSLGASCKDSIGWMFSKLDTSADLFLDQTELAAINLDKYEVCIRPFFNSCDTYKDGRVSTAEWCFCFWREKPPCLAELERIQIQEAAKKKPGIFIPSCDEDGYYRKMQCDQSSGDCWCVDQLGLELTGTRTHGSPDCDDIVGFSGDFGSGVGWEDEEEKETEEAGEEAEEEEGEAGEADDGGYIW

B1: PD1-41C9 (antibody, V domains shown)
VH: QMQLVESGGGVVQPGRSLRLSCAASGFTFSSYAMHWVRQAPGKGLEWVAVISYDGSNKYYADSVKGRFTISRDNSKNTLYLQMNRLRSEDTAVYYCTTTTFDSWGQGTLITVSS
VL: DIVMTQTPLSLPVTPGEAASISCRSSQSLLDSEDGNTYLDWYLQKPGQSPQLLIYTLSHRASGVPDRFSGSGSGTDFTLKISRVAAEDVGLYYCLQRMGFPYTFGQGTKLDIK
notes: scFv-phage in the screening ELISA; whole IgG in the other assays
B2: PD1-49A2 (antibody, V domains shown)
VH: B1 VH with M2V, S75P, R85S, S88A, Q106R, I110V
VL: B1 VL with T7S, A18P, L30F, E33D, A85E, L91I, L110V, D111E
notes: scFv-phage in the screening ELISA; whole IgG in the other assays; also called Parent 49A2
B3: PD1-45D6 (antibody, V domains shown)
VH: QVQLVESGGGVVQPGRSLRLSCAASGFTFSSYAMHWVRQVPGKGLEWVAVISYDGNDKYYADSVKGRFTISRDNSKNTLYLQMNSLRAEDTAVYYCVPTTFEYWGQGSQVTVSS
VL: DIVMTQTPLSLPVTPGEAASISCRSSQSLLDSDDGKTYLDWYLQKPGQSPQLLIYTLSYRASGVPDRFSGSGSGTEFNLRISRVEAEDVGIYYCMQRVEFPFTFGQGTKLDIK
notes: as for B1

These binders were tested against T1, DMP1 (assay: ELISA).
B1: no binding (tested: 1 ug/ml).
B2: no binding (tested: 1 ug/ml).
B3: no binding (tested: 1 ug/ml).

What follows are binders tested against DKK3 (Homo sapiens (Human), UniProt Q9UBP4 22-350) (assay: ELISA).
DKK3, sequence (Q9UBP4 22-350 limits assumed): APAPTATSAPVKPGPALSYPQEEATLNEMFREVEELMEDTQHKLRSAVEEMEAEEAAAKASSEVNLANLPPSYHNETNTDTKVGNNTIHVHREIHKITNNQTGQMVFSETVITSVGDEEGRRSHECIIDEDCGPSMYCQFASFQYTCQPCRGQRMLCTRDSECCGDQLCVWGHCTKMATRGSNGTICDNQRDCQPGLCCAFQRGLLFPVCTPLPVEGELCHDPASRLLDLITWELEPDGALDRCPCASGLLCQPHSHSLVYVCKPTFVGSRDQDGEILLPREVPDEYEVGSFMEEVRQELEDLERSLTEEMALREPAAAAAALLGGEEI
B1: no binding (tested: 1 ug/ml).
B2: no binding (tested: 1 ug/ml).
B3: no binding (tested: 1 ug/ml).

These binders were tested against T2, DKK1 (assay: ELISA).
B1: no binding (tested: 1 ug/ml).
B2: no binding (tested: 1 ug/ml).
B3: no binding (tested: 1 ug/ml).

Each binder was assayed against T3, AGR3 (assay: ELISA).
B1: no binding (tested: 1 ug/ml).
B2: no binding (tested: 1 ug/ml).
B3: no binding (tested: 1 ug/ml).

These binders were tested against MICA (Homo sapiens (Human), UniProt Q29983 24-307) (assay: ELISA).
MICA, sequence (Q29983 24-307 limits assumed): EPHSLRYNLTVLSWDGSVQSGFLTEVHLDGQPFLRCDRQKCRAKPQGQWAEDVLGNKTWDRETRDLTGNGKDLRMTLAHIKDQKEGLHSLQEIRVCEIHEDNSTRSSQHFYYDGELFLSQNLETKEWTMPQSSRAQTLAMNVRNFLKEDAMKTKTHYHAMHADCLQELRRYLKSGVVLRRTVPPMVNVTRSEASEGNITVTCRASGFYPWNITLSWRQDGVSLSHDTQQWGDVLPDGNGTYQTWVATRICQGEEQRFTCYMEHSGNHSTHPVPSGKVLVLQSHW
B1: no binding (tested: 1 ug/ml).
B2: no binding (tested: 1 ug/ml).
B3: no binding (tested: 1 ug/ml).

What follows are binders tested against TLR3 (Homo sapiens (Human), UniProt O15455 24-704) (assay: ELISA).
B1: no binding (tested: 1 ug/ml).
B2: no binding (tested: 1 ug/ml).
B3: no binding (tested: 1 ug/ml).

These binders were tested against T4, SEMA5A (assay: ELISA).
B1: no binding (tested: 1 ug/ml).
B2: no binding (tested: 1 ug/ml).
B3: no binding (tested: 1 ug/ml).

What follows are binders tested against T5, CD209 (assay: ELISA).
B1: no binding (tested: 1 ug/ml).
B2: no binding (tested: 1 ug/ml).
B3: no binding (tested: 1 ug/ml).

What follows are binders tested against T6, SPOCK2 (assay: ELISA).
B1: no binding (tested: 1 ug/ml).
B2: no binding (tested: 1 ug/ml).
B3: no binding (tested: 1 ug/ml).
